Results reported in patent publication US8569455B2, “Cloning, yeast expression, purification and biological activity of the extension region of the soybean 7S globulin alfa' subunit involved in HEP G2 cell cholesterol homeostasis” (Indena S.p.A., priority 2009, dated 2013).
Marks after values point to notes of the source that are not given here.

How the values were obtained:
HepG2 cells [1] = assay: Uptake and degradation of 125I-LDL by HepG2 cells; assay type: cell-based, human; details: for Degradation % / Uptake %: % of LPDS control (100); for Degradation ng125I-LDL/mg cell protein / Uptake ng125I-LDL/mg cell protein: HepG2, 24 h preincubation in 5% LPDS, then 125I-LDL 7.5 mg/L for 5 h, mean ± SD
From the text: The established human hepatoma cell line (HepG2) was obtained from American Type Culture Collection (Rockville, Md.). Eagle's minimum essential medium (MEM), fetal calf serum, trypsin-EDTA (1×), penicillin (10^5 U/L), streptomycin (100 g/L), tricine buffer (1 mmol/L, pH 7.4) and non-essential amino acid solutions (100×) were from GIBCO (Madison, Wis.). Petri dishes were from COSTAR (Cambridge, Mass.). Filters were from Millipore (Bedford, Mass.). […] Sephadex G25 columns (PD10) were from Pharmacia Biotech (Uppsala, Sweden). LDH and MTT kit were from Sigma Diagnostics (Milano-Italy). All other chemicals were of analytical grade from Merck (Darmstadt, Germany). […] For experiments designed to evaluate the LDL receptor modulation, cells were seeded in 35 mm plastic dishes (3-5×10^5 cells) and used just before reaching confluence. In all cell culture experiments, the medium was changed every 2-3 days. In order to assess cell viability, culture media from cells exposed to eα′ at different concentrations were tested by methyltetrazolium salts (MTT) assay, essentially as described in ref. 9. Cell enzyme leakage was determined by measuring lactate dehydrogenase (LDH) activity, using a kinetic (LDH/LD) diagnostic kit (Sigma Diagnostics). […] Human lipoprotein deficient serum (LPDS) was prepared as previously described.
Monolayers of cells were preincubated at 37° C. for 24 h in MEM supplemented with 5 g/100 g LPDS to up-regulate the LDL-receptors, in the presence/absence of eα′ at different concentrations listed in Table or 3.5 μmol/L α′ purified subunit or 1.0 μmol/L simvastatin.
Differences in cell uptake and degradation of LDL after cell incubation with eα′ at different concentrations were determined by ANOVA followed by Dunnett's test. Values are expressed as means±SD; P values<0.05 were considered as statistically significant.

LDL-R = details: Hep G2 cells exposed to the peptide at 100 μM; cited from earlier work
HepG2 cells [2] = assay: Cell viability by methyltetrazolium salts (MTT) assay; assay type: cell-based, human; details: all concentrations tested; data not shown
From the text: (§1) The established human hepatoma cell line (HepG2) was obtained from American Type Culture Collection (Rockville, Md.). Eagle's minimum essential medium (MEM), fetal calf serum, trypsin-EDTA (1×), penicillin (10^5 U/L), streptomycin (100 g/L), tricine buffer (1 mmol/L, pH 7.4) and non-essential amino acid solutions (100×) were from GIBCO (Madison, Wis.). Petri dishes were from COSTAR (Cambridge, Mass.). Filters were from Millipore (Bedford, Mass.). The Protein Coomassie Plus Protein Assay kit was purchased from Pierce (Rockford, Ill., USA). ^125Iodine, carrier free, in 100 mmol/L NaOH, was from Perkin Elmer Life Sciences (Boston, Mass.). Sephadex G25 columns (PD10) were from Pharmacia Biotech (Uppsala, Sweden). LDH and MTT kit were from Sigma Diagnostics (Milano-Italy). All other chemicals were of analytical grade from Merck (Darmstadt, Germany). Cells were grown in monolayers in 90 mm-diameter Petri dishes, and maintained at 37° C. in a humidified atmosphere of 95% air, 5% CO2 in MEM supplemented with 10% fetal calf serum (FCS), non essential amino acid solution (1%, v/v), penicillin (10^5 U/L), streptomycin (0.1 g/L), tricine buffer (20 mmol/L, pH 7.4), NaHCO3 (24 mmol/L) and sodium pyruvate (0.11 g/L). […] Cell enzyme leakage was determined by measuring lactate dehydrogenase (LDH) activity, using a kinetic (LDH/LD) diagnostic kit (Sigma Diagnostics). […]

HepG2 cells [3] = assay: Cell enzyme leakage, lactate dehydrogenase (LDH) activity; assay type: cell-based, human; details: all concentrations tested; data not shown
From the text: as §1

With `CCC(C)(C)C(=O)O[C@H]1C[C@@H](C)C=C2C=C[C@H](C)[C@H](CC[C@@H]3C[C@@H](O)CC(=O)O3)[C@H]21` [Simvastatin, simvastatin, reference compound] the Degradation % (HepG2 cells [1]; 1.0 μmol/L) was 179%, the Uptake % (HepG2 cells [1]; 1.0 μmol/L) was 200% and the “Degradation ng125I-LDL/mg cell protein” value (HepG2 cells [1]; 1.0 μmol/L) was 143 ± 7.9** ng^125 I-LDL/mg cell protein. The “Uptake ng125I-LDL/mg cell protein” value (HepG2 cells [1]; 1.0 μmol/L) was 188 ± 10** ng^125 I-LDL/mg cell protein.

In the case of “FVVNATSN (Glycine max) [LDL-R transcription stimulating peptide deriving from the 7S globulin β chain]”, the “Increased LDL-R transcription” value (LDL-R) is listed as “+148%”.

B1: eα′: recombinant N-terminal extension region of the soybean 7S globulin α′ subunit, expressed in Pichia pastoris, about 20 kDa, SEQ ID NO: 1 (protein)
chain: AVEEEEECEEGQIPRPRPQHPERERQQHGEKEEDEGEQPRPFPFPRPRQPHQEEEHEQKEEHEWHRKEEKHGGKGSEEEQDEREHPRPHQPHQKEEEKHEWQHKQEKHQGKESEEEEEDQDEDEEQDKESQESEGSESQREP
modifications: Glycine max
For B1, the Degradation % (HepG2 cells [1]; 0.5 μmol/L) was 125%, the Uptake % (HepG2 cells [1]; 0.5 μmol/L) was 120% and the “Degradation ng125I-LDL/mg cell protein” value (HepG2 cells [1]; 0.5 μmol/L) was 100 ± 10* ng^125 I-LDL/mg cell protein. The “Uptake ng125I-LDL/mg cell protein” value (HepG2 cells [1]; 0.5 μmol/L) was 113 ± 7.1* ng^125 I-LDL/mg cell protein, the Degradation % (HepG2 cells [1]; 1.0 μmol/L) was 148% and the Uptake % (HepG2 cells [1]; 1.0 μmol/L) was 146%. For the same molecule, the “Degradation ng125I-LDL/mg cell protein” value (HepG2 cells [1]; 1.0 μmol/L) was 118 ± 9.3* ng^125 I-LDL/mg cell protein, the “Uptake ng125I-LDL/mg cell protein” value (HepG2 cells [1]; 1.0 μmol/L) was 138 ± 9.2* ng^125 I-LDL/mg cell protein and the Degradation % (HepG2 cells [1]; 2.0 μmol/L) was 196%. The Uptake % (HepG2 cells [1]; 2.0 μmol/L) was 179%, the “Degradation ng125I-LDL/mg cell protein” value (HepG2 cells [1]; 2.0 μmol/L) was 157 ± 8.7** ng^125 I-LDL/mg cell protein and the “Uptake ng125I-LDL/mg cell protein” value (HepG2 cells [1]; 2.0 μmol/L) was 169 ± 6.7** ng^125 I-LDL/mg cell protein. The “Cellular toxicity, MTT assay” value (HepG2 cells [2]) was “At no concentration of eα′ was there any evidence of cellular toxicity” and the “Cellular toxicity, LDH assay” value (HepG2 cells [3]) was “At no concentration of eα′ was there any evidence of cellular toxicity”.

B2: 7S α′ subunit: purified full size α′ subunit of the soybean 7S globulin, around 71 kDa, positive control (protein)
chain: VEEEEECEEGQIPRPRPQHPERERQQHGEKEEDEGEQPRPFPFPRPRQPHQEEEHEQKEEHEWHRKEEKHGGKGSEEEQDEREHPRPHQPHQKEEEKHEWQHKQEKHQGKESEEEEEDQDEDEEQDKESQESEGSESQREPRRHKNKNPFHFNSKRFQTLFKNQYGHVRVLQRFNKRSQQLQNLRDYRILEFNSKPNTLLLPHHADADYLIVILNGTAILTLVNNDDRDSYNLQSGDALRVPAGTTFYVVNPDNDENLRMIAGTTFYVVNPDNDENLRMITLAIPVNKPGRFESFFLSSTQAQQSYLQGFSKNILEASYDTKFEEINKVLFGREEGQQQGEERLQESVIVEISKKQIRELSKHAKSSSRKTISSEDKPFNLGSRDPIYSNKLGKLFEITQRNPQLRDLDVFLSVVDMNEGALFLPHFNSKAIVVLVINEGEANIELVGIKEQQQRQQQEEQPLEVRKYRAELSEQDIFVIPAGYPVMVNATSDLNFFAFGINAENNQRNFLAGSKDNVISQIPSQVQELAFPRSAKDIENLIKSQSESYFVDAQPQQKEEGNKGRKGPLSSILRAFY
modifications: Glycine max
notes: purified full size α′ subunit of the soybean 7S globulin, around 71 kDa, positive control
For B2, the Degradation % (HepG2 cells [1]; 3.5 μmol/L) was 160%, the Uptake % (HepG2 cells [1]; 3.5 μmol/L) was 164% and the “Degradation ng125I-LDL/mg cell protein” value (HepG2 cells [1]; 3.5 μmol/L) was 128 ± 4.8* ng^125 I-LDL/mg cell protein. For the same molecule, the “Uptake ng125I-LDL/mg cell protein” value (HepG2 cells [1]; 3.5 μmol/L) was 154 ± 9.1* ng^125 I-LDL/mg cell protein.
